Square brackets hold non-standard residues; d marks the D form. Ends that are not written are not given here.
T1: APMA-activated recombinant human MMP-2 (human, UniProt P08253 110-660, limits assumed)
T1 sequence (looked up): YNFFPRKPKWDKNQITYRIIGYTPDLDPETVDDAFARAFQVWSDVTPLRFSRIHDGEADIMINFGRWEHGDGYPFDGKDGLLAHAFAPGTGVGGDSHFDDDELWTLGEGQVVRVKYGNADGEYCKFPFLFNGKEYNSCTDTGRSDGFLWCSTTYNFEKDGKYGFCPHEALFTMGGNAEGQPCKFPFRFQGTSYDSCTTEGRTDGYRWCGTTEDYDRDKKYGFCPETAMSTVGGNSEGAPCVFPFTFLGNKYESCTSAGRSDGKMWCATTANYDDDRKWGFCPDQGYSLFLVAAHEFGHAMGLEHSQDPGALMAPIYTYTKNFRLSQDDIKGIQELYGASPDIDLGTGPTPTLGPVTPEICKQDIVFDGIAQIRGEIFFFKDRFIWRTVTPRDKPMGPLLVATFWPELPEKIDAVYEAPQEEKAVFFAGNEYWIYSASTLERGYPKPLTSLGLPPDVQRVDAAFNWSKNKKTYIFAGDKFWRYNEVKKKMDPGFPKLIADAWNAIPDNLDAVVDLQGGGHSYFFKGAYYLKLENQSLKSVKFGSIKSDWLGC


Key:
[1] = target: T2, ανβ3 integrin receptor on U87MG human glioma cells (human, UniProt P06756 31-1048; P05106 27-788); test: competitive cell-binding assay on U87MG cells, displacement of 125I-echistatin
T2 construct: whole, on cells; Endogenous receptor on U87MG cells; also called ανβ3 receptor
T2 sequence (P06756 31-1048, chain 1 of 2): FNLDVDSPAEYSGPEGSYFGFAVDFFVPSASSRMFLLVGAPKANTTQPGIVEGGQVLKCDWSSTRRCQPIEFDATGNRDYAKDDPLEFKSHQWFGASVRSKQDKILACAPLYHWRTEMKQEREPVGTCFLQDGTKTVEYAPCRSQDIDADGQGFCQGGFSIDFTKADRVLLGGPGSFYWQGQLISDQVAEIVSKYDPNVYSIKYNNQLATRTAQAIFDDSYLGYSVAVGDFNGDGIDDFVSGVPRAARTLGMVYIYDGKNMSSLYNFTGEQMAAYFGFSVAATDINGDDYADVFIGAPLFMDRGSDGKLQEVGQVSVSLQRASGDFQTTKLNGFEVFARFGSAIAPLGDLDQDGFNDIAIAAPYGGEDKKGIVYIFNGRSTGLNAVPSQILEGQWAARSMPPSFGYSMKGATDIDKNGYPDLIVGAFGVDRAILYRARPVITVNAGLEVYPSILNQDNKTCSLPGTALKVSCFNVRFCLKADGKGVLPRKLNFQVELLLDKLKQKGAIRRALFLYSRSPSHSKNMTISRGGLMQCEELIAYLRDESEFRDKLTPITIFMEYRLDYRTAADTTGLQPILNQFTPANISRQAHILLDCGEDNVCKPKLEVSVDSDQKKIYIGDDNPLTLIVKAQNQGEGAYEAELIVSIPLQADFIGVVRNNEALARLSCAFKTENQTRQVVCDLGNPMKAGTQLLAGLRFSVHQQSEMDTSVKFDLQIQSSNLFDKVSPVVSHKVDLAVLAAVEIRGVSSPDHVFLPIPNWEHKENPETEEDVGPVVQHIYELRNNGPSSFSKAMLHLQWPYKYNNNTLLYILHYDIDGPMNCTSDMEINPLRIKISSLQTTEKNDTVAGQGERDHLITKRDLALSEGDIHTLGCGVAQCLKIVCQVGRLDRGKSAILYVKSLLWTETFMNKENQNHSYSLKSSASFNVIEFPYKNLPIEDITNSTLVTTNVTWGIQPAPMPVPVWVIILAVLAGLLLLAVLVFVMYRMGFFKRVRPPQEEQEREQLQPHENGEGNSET
T2 sequence (P05106 27-788, chain 2 of 2): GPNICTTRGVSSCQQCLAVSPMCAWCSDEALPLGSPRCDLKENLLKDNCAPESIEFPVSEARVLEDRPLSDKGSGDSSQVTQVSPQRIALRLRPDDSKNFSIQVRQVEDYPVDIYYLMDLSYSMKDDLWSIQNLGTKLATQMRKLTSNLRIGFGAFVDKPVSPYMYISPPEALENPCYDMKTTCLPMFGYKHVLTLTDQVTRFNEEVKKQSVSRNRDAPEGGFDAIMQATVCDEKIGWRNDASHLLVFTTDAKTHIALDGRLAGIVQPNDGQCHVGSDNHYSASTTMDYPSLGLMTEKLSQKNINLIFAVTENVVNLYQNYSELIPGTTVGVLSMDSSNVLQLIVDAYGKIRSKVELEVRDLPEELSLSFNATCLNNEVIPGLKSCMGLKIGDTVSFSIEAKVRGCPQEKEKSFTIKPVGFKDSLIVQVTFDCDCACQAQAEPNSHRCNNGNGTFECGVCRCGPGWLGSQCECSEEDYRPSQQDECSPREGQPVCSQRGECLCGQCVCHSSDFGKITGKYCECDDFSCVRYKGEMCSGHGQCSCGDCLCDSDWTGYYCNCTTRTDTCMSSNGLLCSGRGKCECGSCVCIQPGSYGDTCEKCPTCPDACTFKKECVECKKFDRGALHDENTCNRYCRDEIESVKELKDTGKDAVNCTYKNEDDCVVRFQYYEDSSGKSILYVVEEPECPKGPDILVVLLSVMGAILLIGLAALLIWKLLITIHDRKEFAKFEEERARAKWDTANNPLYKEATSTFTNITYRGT
Description: Briefly, the U87MG cell line was cultured in DMEM medium containing 10% (v/v) fetal bovine serum supplemented with penicillin (100 μg/ml), streptomycin (100 μg/ml), non-essential amino acids (100 mM) and sodium pyruvate (1 mM) at 37° C. with 5% CO₂. […] After incubation, the plate was washed three times with PBS containing 0.1% BSA, and the radioactivity was measured by γ-counting. The IC₅₀ values were calculated by nonlinear regression analysis.

[2] = target: T1, APMA-activated recombinant human MMP-2; test: cell-based or functional assay

Row | IC50 [1] | recovery of the NIR fluorescence signal [2] | Binder
1 | 456 nM | – | cyclo(RGD[dY]K(CW800)) (Made by conjugating CW800 NHS ester to c(RGDyK); also called CW800-labelled c(RGDyK)) [compound 7]
2 | – | > 20 fold | compound 4 (MMP-P-RGD) (not fully specified (some residues); also: chain 1 C-terminal carboxyl conjugated to chain 2, c(RGDyK), linkage site not given here, head-to-tail to a chain's N/C-terminus) peptide 1: {Cy5.5}-GPLGVRGK(BHQ‑3)GG peptide 2: RGDYK

Source: US20140249468A1 (UNITED STATES OF AMERICA AS REPRESENTED BY THE SECRETARY …, published 2014)
